Measurements as given in article PMC10275869 (Nature Communications, 2023).

B1: 1F5 (human IgG1) (antibody, V domains shown)
VH: DVQLQESGPGLVKPSQSLSLTCSVTGYSITSDYYWNWIRQFPGNKLEWMGYVTYDGSNNYNPSLKNRISITRDSSKNQFFLKLNSVISEDTATYYCARFGSSYWAMDYWGQGTSLTVSS
VL: QIVLTQSPAIMSASLGEAITLTCSASSSVSYMHWYQQKSGTSPKLLIYSTSNLASGVPSRFSGSGSGTFYSLTISSVEAEDAADYYCHQWYSYPWTFGGGTKLEIK
B2: 5B3 (human IgG1) (antibody, V domains shown)
VH: EVQLVESGGGLVKPGGSLKLSCAASGFTFSSYDMSWVRQTPEKRLEWVAMISSGGSYSYYPDSVKGRFTISRDNAKNTLYLQMSSLRSEDTAMYYCARQGDYAWFAYWGQGTLVTVSS
VL: DIQMTQSPASQSASLGESVTITCLASQTIGTWLAWYQQKPGKSPQLLIYAATSLADGVPSRFSGSGSGTKFSFKISSLQAEDFVSYYCQQFYSTPFTFGGGTKLEIK
B3: 12B2 (human IgG1) (antibody, V domains shown)
VH: QVQLKESGPGLVAPSQSLSITCTVSGFSLASYGVHWVRQPPGKGLEWLGVIWTGGSTNYNSALMSRLSINRDNSKSQVFLKLNSLQTDDTAIYYCARDRGYGYGGFAYWGQGTLVTVSA
VL: DIQMTQSPASLSASVGETVTITCRASENIYSYLAWYQHKQGKSPQLLVYNAKSLAEGVPSRFSGSGSGTQFSLKINSLQPEDFGSYYCQHHYGTPWTFGGGTKLEIK
B4: mAb66 (human IgG1) (antibody, V domains shown)
VH: ETGSGGGLVKPGGTLTLTCKASGFTLSSYWMCWVRQAPGKGLELIACLYTNGATTWYASWVNGRFAISRSTSRNTVDLNMTSLTAADTATYFCARGSGSGWSWFNIWGPGTLVTVSS
VL: TGVMTQTPASVEAAVGGTVTIKCQASQNIISSLAWYQQKPGQRPKLLIYYASTLASGVPSRFKGSGSGTQFTLTISDLECADAATYYCQSYYYSGITYGNAFGGGTEVVVK

Molecular target: MojV F clamp2 (prefusion Mòjiāng virus fusion glycoprotein ectodomain stabilised with the clamp2 molecular … (Mòjiāng virus))
Test: ELISA
Settings: both partners purified

| Binder | binding result |
| --- | --- |
| B1 | no binding (tested: 50 μg/mL) |
| B2 | no binding (tested: 50 μg/mL) |
| B3 | no binding (tested: 50 μg/mL) |
| B4 | no binding (tested: 50 μg/mL) |
